Test [1] has as its target T1, Clostridium difficile toxin A (TcdA) (Clostridium difficile strain 10463, UniProt P16154 1-2710).
T1 construct: range 1-2710
The experiment in a line: ELISA, antigen coated. (In an ELISA, binding on a coated surface is turned into a signal by an enzyme label.)

The target in test [2] is T2, TcdB-RBD-f1 (Clostridium difficile, UniProt P18177 2286-2366).
T2 construct: range 2286-2366
The experiment in a line: SPR (BIACORE 3000); VHH immobilized on CM5 chip, TcdB-RBD-f1 injected. Background: Surface plasmon resonance follows binding to a sensor surface in real time, without labels.

The target in test [3] is T1, Clostridium difficile toxin A (TcdA). Put plainly: SPR (BIACORE 3000); 10,287 RUs of TcdA immobilized, VHH injected.
Test [4] has the same target.
Test [5] shares this target. Put plainly: SPR, TcdA immobilized; same value as in Table 1.
For test [6], the target named is T2, TcdB-RBD-f1. The experiment in a line: ELISA, antigen coated.
Test [7] deals with T3, Clostridium difficile toxin B (TcdB) (Clostridium difficile strain 10463, UniProt P18177 1-2366).
T3 construct: range 1-2366
Put plainly: ELISA, antigen coated.

In test [8] the target is T1, Clostridium difficile toxin A (TcdA). The experiment in a line: SPR (BIACORE 3000); TcdA immobilized on CM5 chip, monomeric VHH injected.
Test [9] has the same target. Put plainly: ELISA, immobilized TcdA, serial dilution of VHH, rabbit anti-His6 IgG-HRP.
The target of test [10] is T4, TcdA-RBD-f1 (Clostridium difficile, UniProt P16154 2304-2710).
T4 construct: range 2304-2710
The experiment in a line: ELISA, antigen coated.

Test [11] has as its target T1, Clostridium difficile toxin A (TcdA). Put plainly: ELISA, TcdA coated at 5 ug/ml, rabbit anti-His6 IgG-HRP.
Test [12] has the same target. This is another data set of the same source.

Read-outs that look alike come from different tables or passages of the source.

Usually Kd stands for the concentration at which binding is half-saturated. High values mean lower affinity, low ones higher affinity. One may read the koff as the first-order rate constant of dissociation. High values mean fast dissociation, low ones slow dissociation. What is called kon is a measure of how fast the partners come together. Low readings indicate slower complex formation, high ones faster complex formation. A word on the EC50 (read off the curve): it is the concentration giving half of the maximal effect. A higher EC50 (read off the curve) goes with a less potent agent.

B1: B5.2 (VHH)
VHH: QVQLVESGGGLVQPGGSLRLSCAASGNIFSINTMGWYRQAPGKQLELVAAITSGGTTSYTDSVEGRFTISRDNAKNAVYLQMNSLKAEDTAVYYCNTVKVVGGRLDNPDYWGQGTQVTVSS
notes: llama VHH monomer; also called anti-TcdB VHH B5.2
For the molecule B1, in test [1], the binding result was “binds”. In test [2], the affinity, expressed as Kd, was 100 nM; the koff came out at 0.0002 s⁻¹; the kon came out at 2000 M⁻¹ s⁻¹.

B2: A4.2m (VHH)
VHH: QVKLEESGGGLVQAGGSLRLSCAASGRTFNTLSMGWFRQAPGKEREFVCAVSRSGGSTYYADSVKGRFTCSRDNAKNTVYLQMNSLKPEDTAVYYCAAAATKSNTTAYRLSFDYWGQGTQVTVSS
notes: also called mutant A4.2; disulfide mutant of A4.2
Turning to B2, in [3], the Kd amounted to 20 nM, the koff came out at 0.019 s⁻¹ and the on-rate (kon) turned out to be 930000 M⁻¹ s⁻¹. This molecule also came in with an off-rate constant (koff) in test [4] of 0.016 s⁻¹.

B3: A4.2 (VHH)
VHH: QVKLEESGGGLVQAGGSLRLSCAASGRTFNTLSMGWFRQAPGKEREFVAAVSRSGGSTYYADSVKGRFTISRDNAKNTVYLQMNSLKPEDTAVYYCAAAATKSNTTAYRLSFDYWGQGTQVTVSS
notes: also called anti-TcdA VHH A4.2
As to B3, the Kd in [5] and in [8] was 24 nM throughout. Moreover, the koff in test [5] and in test [8] was 0.016 s⁻¹ throughout. The molecule further showed a kon in test [5] of 670000 M⁻¹ s⁻¹. In addition, the binding result in test [6] and in test [7] was “no binding” each time.

B4: A19.2 (VHH)
VHH: QVKLEESGGGLVQPGGSLRLSCAASGRTLSSYIVAWFRQAPGKEREFVAGISRRGGNSAYVESVKGRFTISRDNAKNTVYLQMNSLKPEDTAVYYCAADGSVAGWGRRSVSVSSYDYWGQGTQVTVSS
notes: also called anti-TcdA VHH A19.2
Consider B4, for which, in test [5], the Kd turned out to be 290 nM, the koff turned out to be 0.0039 s⁻¹ and the kon came to 14000 M⁻¹ s⁻¹. For the same molecule, in [6], the binding result was “no binding”. The binding result in test [7] is given as “no binding”. In [8], this molecule returned a Kd of 290 nM, a koff of 0.0039 s⁻¹ and a kon of 14000 M⁻¹ s⁻¹. Moreover, in [9], the “EC50 (read off the curve)” value is approximately 0.04 µg/mL.

B5: A26.8m (VHH)
VHH: QVKLEESGGGLVQAGGSLRLSCAASERTFSRYPVAWFRQAPGAEREFVCVISSTGTSTYYADSVKGRFTCSRDNAKVTVYLQMNNLKREDTAVYFCAVNSQRTRLQDPNEYDYWGQGTQVTVSS
notes: also called mutant A26.8; disulfide mutant of A26.8
In test [3], B5 had a Kd of 28 nM, a koff of 0.028 s⁻¹ and a kon of 1e+06 M⁻¹ s⁻¹. In test [4], this molecule returned a koff of 0.019 s⁻¹.

B6: A26.8 (VHH)
VHH: QVKLEESGGGLVQAGGSLRLSCAASERTFSRYPVAWFRQAPGAEREFVAVISSTGTSTYYADSVKGRFTISRDNAKVTVYLQMNNLKREDTAVYFCAVNSQRTRLQDPNEYDYWGQGTQVTVSS
notes: also called anti-TcdA VHH A26.8
B6: the results for the binding result in test [6] and in test [10] were “no binding” and “binds”, respectively.

B7: A5.1 (VHH)
VHH: QVKLEESGGGLVQAGGSLRLSCAASGRTFSMYRMGWFRQAPGKEREFVGVITRNGSSTYYADSVKGRFTISRDNAKNTVYLQMNSLKPEDTALYYCAATSGSSYLDAAHVYDYWGQGTQVTVSS
notes: also called anti-TcdA VHH A5.1
For B7, in [5], the affinity, expressed as Kd, was 3 nM; the koff was 0.005 s⁻¹; the kon came out at 1.6e+06 M⁻¹ s⁻¹. For the same molecule, the “EC50 (read off the curve)” value in test [11] is approximately 7 nM. Further, the binding result in test [6] was “no binding”. In addition, the binding result in test [7] is “no binding”. In test [8], this molecule yielded an equilibrium dissociation constant (Kd) of 3 nM, a koff of 0.005 s⁻¹ and a kon of 1.6e+06 M⁻¹ s⁻¹.

B8: A5.1p (other)
VHH: QVKLEESGGGLVQAGGSLRLSCAASGRTFSMYRMGWFRQAPGKEREFVGVITRNGSSTYYADSVKGRFTISRDNAKNTVYLQMNSLKPEDTALYYCAATSGSSYLDAAHVYDYWGQGTQVTVSS
For B8, the “EC50 (read off the curve)” value in [12] was approximately 4 nM.

B9: A5.1m (VHH)
VHH: QVKLEESGGGLVQAGGSLRLSCAASGRTFSMYRMGWFRQAPGKEREFVCVITRNGSSTYYADSVKGRFTCSRDNAKNTVYLQMNSLKPEDTALYYCAATSGSSYLDAAHVYDYWGQGTQVTVSS
notes: also called mutant A5.1; disulfide mutant of A5.1
As for B9, in [3], binding was put at a Kd of 17 nM, the koff was found to be 0.016 s⁻¹ and the kon turned out to be 950000 M⁻¹ s⁻¹. In addition, the koff in [4] was found to be 0.013 s⁻¹.

B10: A24.1 (VHH)
VHH: QVQLVESGGGLVQAGGSLRLSCAASIRSFSNRNMGWFRQPPGKEREFVAGISWGGGSTRYADSVKGRFTISRDNAKKTVYLQMNSLKPEDTAVYYCAAEFGHNIATSSDEYDYWGQGTQVTVSS
notes: also called anti-TcdA VHH A24.1
As to B10, in [5], the Kd amounted to 260 nM, the koff was determined as 0.016 s⁻¹ and the kon amounted to 60000 M⁻¹ s⁻¹. In addition, in [6], the binding result is reported as “no binding”. Also, in test [7], the binding result was “no binding”. Moreover, in [8], the Kd turned out to be 260 nM, the koff was determined as 0.016 s⁻¹ and the kon turned out to be 60000 M⁻¹ s⁻¹.

B11: B15.5 (VHH)
VHH: QVQLVESGGDLVQAGGSLRLSCAASGSISRISTMGWYRQAPGKQRELVATISTGGTTNYAESVKGRFTVSRDNAKNTMYLQMNSLKPEDTAVYYCAAGWKVVRGSLEYEYSGQGTQVTVSS
notes: llama VHH monomer; also called anti-TcdB VHH B15.5
In test [2], B11 returned a Kd of 357 nM, an off-rate constant (koff) of 0.001 s⁻¹ and a kon of 2800 M⁻¹ s⁻¹.

B12: B13.6 (VHH)
VHH: QVKLEESGGGLVQAGGSLRLSCSASGRTFSSGVMGWFRQAPGKQRELVAAITTGGSTSYTDSVKGRFTISRDNAKNTVYLQMNSLKPEDTAVYYCNSVAVVGGVIKSPDYWGQGTQVTVSS
notes: llama VHH monomer; also called anti-TcdB VHH B13.6
In [2], B12 showed a Kd of 400 nM, a koff of 0.001 s⁻¹ and a kon of 2500 M⁻¹ s⁻¹.

B13: A20.1 (VHH)
VHH: QVQLVESGGGLAQAGGSLRLSCAASGRTFSMDPMAWFRQPPGKEREFVAAGSSTGRTTYYADSVKGRFTISRDNAKNTVYLQMNSLKPEDTAVYYCAAAPYGANWYRDEYAYWGQGTQVTVSS
notes: also called anti-TcdA VHH A20.1
For B13, in test [5], the Kd was found to be 2 nM, the koff worked out at 0.0016 s⁻¹ and the kon was 820000 M⁻¹ s⁻¹. Moreover, in test [11], the “EC50 (read off the curve)” value is approximately 1 nM. The binding result in test [6] is recorded as “no binding”. Besides, the binding result in test [7] is “no binding”. In test [8], this molecule registered a Kd of 2 nM, a koff of 0.0016 s⁻¹ and a kon of 820000 M⁻¹ s⁻¹.

B14: A20.1m (VHH)
VHH: QVQLVESGGGLAQAGGSLRLSCAASGRTFSMDPMAWFRQPPGKEREFVCAGSSTGRTTYYADSVKGRFTCSRDNAKNTVYLQMNSLKPEDTAVYYCAAAPYGANWYRDEYAYWGQGTQVTVSS
notes: also called mutant A20.1; disulfide mutant of A20.1
On to B14, for which, in test [3], binding was put at a Kd of 9.2 nM, the koff is 0.0059 s⁻¹ and the kon is 640000 M⁻¹ s⁻¹. This molecule also came in with a koff in test [4] of 0.0059 s⁻¹.

B15: A20.1p (other)
VHH: QVQLVESGGGLAQAGGSLRLSCAASGRTFSMDPMAWFRQPPGKEREFVAAGSSTGRTTYYADSVKGRFTISRDNAKNTVYLQMNSLKPEDTAVYYCAAAPYGANWYRDEYAYWGQGTQVTVSS
Turning to B15, the “EC50 (read off the curve)” value in [12] is approximately 1 nM.
